Measurements taken from article PMC10925063, “FUS unveiled in mitochondrial DNA repair and targeted ligase-1 expression rescues repair-defects in FUS-linked motor neuron disease” (Nature Communications, 2024).

T1: Tom20 (human (endogenous in fibroblasts and …, UniProt Q15388 1-145))
T1 construct: Tom20, mitochondria-specific marker, human, endogenous; source: endogenous, in fibroblasts and iPSC-derived motor neurons
T1 sequence (looked up): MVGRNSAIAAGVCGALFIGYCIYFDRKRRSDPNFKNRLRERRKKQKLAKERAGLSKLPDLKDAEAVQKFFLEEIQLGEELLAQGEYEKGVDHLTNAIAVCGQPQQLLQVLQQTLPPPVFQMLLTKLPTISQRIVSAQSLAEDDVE

B1: Fused in Sarcoma (FUS), endogenous wild type (natural protein, UniProt P35637 1-526, looked up)
chain: MASNDYTQQATQSYGAYPTQPGQGYSQQSSQPYGQQSYSGYSQSTDTSGYGQSSYSSYGQSQNTGYGTQSTPQGYGSTGGYGSSQSSQSSYGQQSSYPGYGQQPAPSSTSGSYGSSSQSSSYGQPQSGSYSQQPSYGGQQQSYGQQQSYNPPQGYGQQNQYNSSSGGGGGGGGGGNYGQDQSSMSSGGGSGGGYGNQDQSGGGGSGGYGQQDRGGRGRGGSGGGGGGGGGGYNRSSGGYEPRGRGGGRGGRGGMGGSDRGGFNKFGGPRDQGSRHDSEQDNSDNNTIFVQGLGENVTIESVADYFKQIGIIKTNKKTGQPMINLYTDRETGKLKGEATVSFDDPPSAKAAIDWFDGKEFSGNPIKVSFATRRADFNRGGGNGRGGRGRGGPMGRGGYGGGGSGGGGRGGFPSGGGGGGGQQRAGDWKCPNPTCENMNFSWRNECNQCKAPKPDGPGGGPGGSHMGGNYGDDRRGGRGGYDRGGYRGRGGDRGGFRGGRGGGDRGGFGPGKMDSRGEHRQDRRERPY
notes: Fused in Sarcoma (FUS), human, endogenous wild type; also called FUS WT; WT FUS; source: endogenous, in HEK293 cells, control fibroblasts, iPSC-derived motor neurons and NPSCs
B2: FUS P525L, endogenous mutant of ALS patient-derived cells (natural protein, UniProt P35637 1-526, looked up)
chain: MASNDYTQQATQSYGAYPTQPGQGYSQQSSQPYGQQSYSGYSQSTDTSGYGQSSYSSYGQSQNTGYGTQSTPQGYGSTGGYGSSQSSQSSYGQQSSYPGYGQQPAPSSTSGSYGSSSQSSSYGQPQSGSYSQQPSYGGQQQSYGQQQSYNPPQGYGQQNQYNSSSGGGGGGGGGGNYGQDQSSMSSGGGSGGGYGNQDQSGGGGSGGYGQQDRGGRGRGGSGGGGGGGGGGYNRSSGGYEPRGRGGGRGGRGGMGGSDRGGFNKFGGPRDQGSRHDSEQDNSDNNTIFVQGLGENVTIESVADYFKQIGIIKTNKKTGQPMINLYTDRETGKLKGEATVSFDDPPSAKAAIDWFDGKEFSGNPIKVSFATRRADFNRGGGNGRGGRGRGGPMGRGGYGGGGSGGGGRGGFPSGGGGGGGQQRAGDWKCPNPTCENMNFSWRNECNQCKAPKPDGPGGGPGGSHMGGNYGDDRRGGRGGYDRGGYRGRGGDRGGFRGGRGGGDRGGFGPGKMDSRGEHRQDRRERLY
notes: Fused in Sarcoma (FUS), human, with the ALS patient mutation P525L; source: endogenous, in ALS patient-derived fibroblasts, iPSC-derived motor neurons and NPSCs
B3: FUS R521H, endogenous mutant of ALS patient-derived cells (natural protein, UniProt P35637 1-526, looked up)
chain: MASNDYTQQATQSYGAYPTQPGQGYSQQSSQPYGQQSYSGYSQSTDTSGYGQSSYSSYGQSQNTGYGTQSTPQGYGSTGGYGSSQSSQSSYGQQSSYPGYGQQPAPSSTSGSYGSSSQSSSYGQPQSGSYSQQPSYGGQQQSYGQQQSYNPPQGYGQQNQYNSSSGGGGGGGGGGNYGQDQSSMSSGGGSGGGYGNQDQSGGGGSGGYGQQDRGGRGRGGSGGGGGGGGGGYNRSSGGYEPRGRGGGRGGRGGMGGSDRGGFNKFGGPRDQGSRHDSEQDNSDNNTIFVQGLGENVTIESVADYFKQIGIIKTNKKTGQPMINLYTDRETGKLKGEATVSFDDPPSAKAAIDWFDGKEFSGNPIKVSFATRRADFNRGGGNGRGGRGRGGPMGRGGYGGGGSGGGGRGGFPSGGGGGGGQQRAGDWKCPNPTCENMNFSWRNECNQCKAPKPDGPGGGPGGSHMGGNYGDDRRGGRGGYDRGGYRGRGGDRGGFRGGRGGGDRGGFGPGKMDSRGEHRQDHRERPY
notes: Fused in Sarcoma (FUS), human, with the ALS patient mutation R521H; source: endogenous, in ALS patient-derived fibroblasts and iPSC-derived motor neurons

What was measured:
Conditions in all cases: partners not purified
[1] = molecular target: B3; test: proximity ligation; Duolink in situ PLA on fixed, permeabilised control and patient iPSC-derived motor neurons (Fig. 1e, 4e); with or without GO; MitoTracker green counterstain; foci counted in 25 cells
[2] = molecular target: B1; test: as above
[3] = molecular target: B2; test: as above
HSP60 = molecular target: T2, HSP60 (human (endogenous in fibroblasts and …, UniProt P10809 27-573)); test: proximity ligation; Duolink in situ PLA on fixed, permeabilised cells with anti-FUS and anti-Tom20 or anti-HSP60; patient derived fibroblasts and motor neurons (Fig. 1c, d; the panel's cell type is not told); untreated or glucose oxidase (GO)
T2 construct: HSP60, mitochondria-specific marker, human, endogenous; source: endogenous, in fibroblasts and motor neurons

Tom20 [4] = molecular target: T1, Tom20; test: as above
Tom20 [5] = molecular target: T1, Tom20; test: proximity ligation; Duolink in situ PLA on fixed, permeabilised control and patient iPSC-derived motor neurons (Fig. 1e, 4e); with or without GO; MitoTracker green counterstain; foci counted in 25 cells

T2 sequence (P10809 27-573): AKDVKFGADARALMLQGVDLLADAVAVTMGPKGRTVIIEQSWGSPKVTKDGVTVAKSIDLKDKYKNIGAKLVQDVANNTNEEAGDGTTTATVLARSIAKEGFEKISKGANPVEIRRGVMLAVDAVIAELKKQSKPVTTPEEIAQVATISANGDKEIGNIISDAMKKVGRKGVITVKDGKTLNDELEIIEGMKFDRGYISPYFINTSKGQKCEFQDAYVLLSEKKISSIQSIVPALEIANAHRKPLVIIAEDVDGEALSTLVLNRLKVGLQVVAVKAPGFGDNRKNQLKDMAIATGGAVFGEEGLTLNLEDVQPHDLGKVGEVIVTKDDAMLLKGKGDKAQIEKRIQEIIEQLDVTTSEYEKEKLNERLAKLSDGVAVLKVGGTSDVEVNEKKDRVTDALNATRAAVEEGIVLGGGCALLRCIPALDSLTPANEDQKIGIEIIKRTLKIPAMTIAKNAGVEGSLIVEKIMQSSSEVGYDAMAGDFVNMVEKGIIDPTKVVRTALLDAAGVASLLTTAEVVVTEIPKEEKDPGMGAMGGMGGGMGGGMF

Binder | PLA foci, median (GO) [1] [PLA foci] | PLA foci, median (GO) [2] [PLA foci] | PLA foci, median (GO) [3] [PLA foci] | PLA foci, median (GO) (HSP60) [PLA foci] | PLA foci, median (untreated) (HSP60) [PLA foci] | PLA foci, median (untreated) (Tom20 [4]) [PLA foci] | PLA foci, median (GO) (Tom20 [5]) [PLA foci] | PLA foci, median (untreated) (Tom20 [5]) [PLA foci]
mtDNA Ligase IIIα (mtLig3) (enzyme, UniProt P49916 43-1009, looked up, DNA ligase IIIα, human, endogenous; also called LigIII; mitochondrial version of Lig3; source: endogenous, in HEK293 cells, fibroblasts, iPSC-derived motor neurons and NPSCs) LLHGHPLFLRRKPVLSFQGSHLRSRATYLVFLPGLHVGLCSGPCEMAEQRFCVDYAKRGTAGCKKCKEKIVKGVCRIGKVVPNPFSESGGDMKEWYHIKCMFEKLERARATTKKIEDLTELEGWEELEDNEKEQITQHIADLSSKAAGTPKKKAVVQAKLTTTGQVTSPVKGASFVTSTNPRKFSGFSAKPNNSGEAPSSPTPKRSLSSSKCDPRHKDCLLREFRKLCAMVADNPSYNTKTQIIQDFLRKGSAGDGFHGDVYLTVKLLLPGVIKTVYNLNDKQIVKLFSRIFNCNPDDMARDLEQGDVSETIRVFFEQSKSFPPAAKSLLTIQEVDEFLLRLSKLTKEDEQQQALQDIASRCTANDLKCIIRLIKHDLKMNSGAKHVLDALDPNAYEAFKASRNLQDVVERVLHNAQEVEKEPGQRRALSVQASLMTPVQPMLAEACKSVEYAMKKCPNGMFSEIKYDGERVQVHKNGDHFSYFSRSLKPVLPHKVAHFKDYIPQAFPGGHSMILDSEVLLIDNKTGKPLPFGTLGVHKKAAFQDANVCLFVFDCIYFNDVSLMDRPLCERRKFLHDNMVEIPNRIMFSEMKRVTKALDLADMITRVIQEGLEGLVLKDVKGTYEPGKRHWLKVKKDYLNEGAMADTADLVVLGAFYGQGSKGGMMSIFLMGCYDPGSQKWCTVTKCAGGHDDATLARLQNELDMVKISKDPSKIPSWLKVNKIYYPDFIVPDPKKAAVWEITGAEFSKSEAHTADGISIRFPRCTRIRDDKDWKSATNLPQLKELYQLSKEKADFTVVAGDEGSSTTGGSSEENKGPSGSAVSRKAPSKPSASTKKAEGKLSNSNSKDGNMQTAKPSAMKVGEKLATKSSPVKVGEKRKAADETLCQTKVLLDIFTGVRLYLPPSTPDFSRLRRYFVAFDGDLVQEFDMTSATHVLGSRDKNPAAQQVSPEWIWACIRKRRLVAPC | 4 | 8 | 2 |  |  |  |  | 
B1 |  |  |  | 36 | 12 | 24 | 4 | 1
B2 |  |  |  | 64 | 51 | 218 | 13 | 4
B3 |  |  |  | 56 | 27 | 89 | 9 | 4
